The subject of the data set is His-Mwt (matrix protein M) (Human respiratory syncytial virus (A2?)). In words: EMSA. The settings on record: 10 mM HEPES (pH not stated), 0.25 mM DTT, 50 mM KCl, 10 uL, 15 min at room temperature; 0.8% agarose gel, 40 V, 8 h, 4 C.

For the substance control luciferase RNA (T7 transcript), the K half turned out to be 2100 nM.
